# Measured values as given in patent publication US11078465B2, “Alcohol dehydrogenase mutant and application thereof in synthesis of diaryl chiral alcohols” (Jiangnan University, priority 2018, dated 2021).
# Numbering of substitutions follows the chain as printed. Names and notes keep the numbering of the source. Values joined by “and” are separate entries in the source; they are usually repeats but may differ in a detail not shown here. Equal entries are not always repeated.
# B1: E214V: valine for glutamate at position 214 of the alcohol dehydrogenase of SEQ ID No. 2 (protein)
# chain: MSVLISGASGYIAKHIVRVLLEQNYKVIGTVRSQDKADKLLKQYNNPNLSYEIVPEIANLDAFDDIFKKHGKEIKYVIHAASPVNFGAKDLEKDLVIPAINGTKNMFEAIKKYAPDTVERVVMTASYASIMTPHRQNDPTLTLDEETWNPVTEENAYENVFTAYCASKTFAEKEAWKFVKENSDAVKFKLTTIHPSFVFGPQNFDEDVTKKLNVTCEIINGLLHAPFDTKVEKTHFSQFIDVRDVAKTHVLGFQKDELINQRLLLCNGAFSQQDIVNVFNEDFPELKGQFPPEDKDTDLNKGVTGCKIDNEKTKKLLAFEFTPFHKTIHDTVYQILHKEGRV
# modifications: Protein translated from synthetic DNA
# B2: E214I: isoleucine for glutamate at position 214 of the alcohol dehydrogenase of SEQ ID No. 2 (protein)
# chain: B1 chain with V214I
# modifications: Protein translated from synthetic DNA
# B3: E214R: arginine for glutamate at position 214 of the alcohol dehydrogenase of SEQ ID No. 2 (protein)
# chain: B1 chain with V214R
# modifications: Protein translated from synthetic DNA
# B4: E214Q: glutamine for glutamate at position 214 of the alcohol dehydrogenase of SEQ ID No. 2 (protein)
# chain: B1 chain with V214Q
# modifications: Protein translated from synthetic DNA
# B5: E214N: asparagine for glutamate at position 214 of the alcohol dehydrogenase of SEQ ID No. 2 (protein)
# chain: B1 chain with V214N
# modifications: Protein translated from synthetic DNA
# B6: E214S: serine for glutamate at position 214 of the alcohol dehydrogenase of SEQ ID No. 2 (protein)
# chain: B1 chain with V214S
# modifications: Protein translated from synthetic DNA
# B7: E214G: glycine for glutamate at position 214 of the alcohol dehydrogenase of SEQ ID No. 2 (protein)
# chain: B1 chain with V214G
# modifications: Protein translated from synthetic DNA
# B8: S237A: alcohol dehydrogenase mutant obtained by random mutation screening (protein)
# chain: B1 chain with V214I, S237A
# modifications: Protein translated from synthetic DNA
# notes: alcohol dehydrogenase mutant obtained by random mutation screening
# B9: S237C: alcohol dehydrogenase mutant obtained by random mutation screening (protein)
# chain: B1 chain with V214G, S237C
# modifications: Protein translated from synthetic DNA
# notes: as for B8
# Test: Kinetic analysis of alcohol dehydrogenase and mutants (NADPH oxidation, 340 nm, double reciprocal curve)
# Assay type: biochemical
# Details: substrate CPMK
# Protocol: Adopting a total reaction system of 200 μL, including: 1.0 mM NADPH, 1.0 mM substrate CPMK and sodium phosphate buffer (PBS, 100 mM, pH 7.0), fully and evenly mixing, maintaining at 30° C. for 2 min, adding an appropriate amount of enzyme solution, and detecting the change in light absorption at 340 nm.
# The enzyme activity was calculated by the following formula: Enzyme activity (U)=EW×V×10^3/(6220×I);
# in the formula, EW is the change in absorbance at 340 nm in 1 min; V is the volume of a reaction solution in mL; 6220 is the molar extinction coefficient of NADPH in L/mol·cm); and 1 is the optical path distance in cm. One activity unit (U) corresponds to the amount of enzyme required to catalyze the oxidation of 1 μmol NADPH per minute under the above conditions.
# A column used for purification was a nickel affinity column HisTrap FF crude, and purification was achieved through affinity chromatography using a histidine tag on recombinant protein. The nickel column was equilibrated with a solution A first, a crude enzyme solution was loaded, a penetrating peak was further eluted off using the solution A, and after equilibrium, a solution B (20 mM sodium phosphate, 500 mM NaCl, and 1000 mM imidazole, pH 7.4) was used for gradient elution to elute off the recombinant protein bound to the nickel column, so as to obtain the recombinant alcohol dehydrogenase mutant. The purified protein was subjected to activity measurement (CPMK as substrate, and NADPH as coenzyme) and SDS-PAGE analysis. […] The purified alcohol dehydrogenase protein was then replaced into a Tris-HCl (100 mM, pH 7.0) buffer using a Hi Trap Desalting column (GE Healthcare).
# The activity of KpADH at different substrate concentrations and coenzyme concentrations was determined, and a double reciprocal curve was made based on the reciprocal of activity and substrate concentration to calculate kinetic parameters.
Molecule,Kcat,Km,Vmax
B1,8.91 ± 0.48 s⁻¹,420 µM,13.36 ± 0.89 µM/min/mg
B2,8.77 ± 0.23 s⁻¹,410 ± 40 µM,13.15 ± 0.43 µM/min/mg
B3,15.85 ± 0.49 s⁻¹,980 ± 80 µM,23.77 ± 0.90 µM/min/mg
B4,16.26 ± 1.33 s⁻¹,1300 ± 200 µM,24.4 ± 0.20 µM/min/mg
B5,22.90 ± 1.12 s⁻¹,420 ± 60 µM,34.35 ± 2.05 µM/min/mg
B6,11.86 ± 0.48 s⁻¹,540 ± 70 µM,17.79 ± 0.88 µM/min/mg
B7,5.5 ± 0.10 s⁻¹,250 µM,8.26 ± 0.15 µM/min/mg

# Test: Stereoselectivity (ee) of CPMK reduction, chiral liquid chromatography
# Assay type: biochemical
# Details: not given
# Protocol: In an embodiment of the present disclosure, a chromatographic analysis method is as follows: 100 μL of reactant liquid is taken, 500 μL of ethyl acetate is added, shaking is performed for 1-2 min, centrifugation is performed at 12,000 rpm for 2-5 min, supernatant liquid is taken into a centrifuge tube, after an organic phase naturally volatilizes completely, 500 μL of chromatographically pure ethanol is added, and chiral liquid chromatography and gas chromatography are performed to analyze the transformation rate and the ee value.
# Method for determining optical purity ee:
# As: molar concentration of (S)-CPMA obtained by liquid chromatography; and AR: molar concentration of (R)-CPMA obtained by liquid chromatography.
row,Molecule,configuration of product / stereoselectivity in words
1,B7,inversion from an R configuration to an S configuration

# Same assay, conditions: R configuration product
row,Molecule,"ee value, (R)-CPMA"
1,B1,91% and 95.3%

# Same assay, conditions: product configuration in brackets
Molecule,ee %,e.e.
B1,95.3 (R) %,–
B8,–,96.1 (R)
B2,93.0 (R) %,–
B3,42.5 (R) %,–
B9,–,27 (R)
B4,58.5 (R) %,–
B5,58.1 (R) %,–
B6,14.2 (R) %,–
B7,25.6 (S) %,25.6 (S)
